The assay concerns the target T1, IL-20RA/IL-20RB heterodimeric receptor (human, UniProt Q9UHF4 30-553; Q6UXL0 30-311).
T1 construct: Both subunits were co-expressed on transfected COS, BHK or BaF3 cells, or were endogenous on HaCaT keratinocytes; also called IL-20RB-IL-20RA heterodimer; IL-20 receptor
T1 sequence 1: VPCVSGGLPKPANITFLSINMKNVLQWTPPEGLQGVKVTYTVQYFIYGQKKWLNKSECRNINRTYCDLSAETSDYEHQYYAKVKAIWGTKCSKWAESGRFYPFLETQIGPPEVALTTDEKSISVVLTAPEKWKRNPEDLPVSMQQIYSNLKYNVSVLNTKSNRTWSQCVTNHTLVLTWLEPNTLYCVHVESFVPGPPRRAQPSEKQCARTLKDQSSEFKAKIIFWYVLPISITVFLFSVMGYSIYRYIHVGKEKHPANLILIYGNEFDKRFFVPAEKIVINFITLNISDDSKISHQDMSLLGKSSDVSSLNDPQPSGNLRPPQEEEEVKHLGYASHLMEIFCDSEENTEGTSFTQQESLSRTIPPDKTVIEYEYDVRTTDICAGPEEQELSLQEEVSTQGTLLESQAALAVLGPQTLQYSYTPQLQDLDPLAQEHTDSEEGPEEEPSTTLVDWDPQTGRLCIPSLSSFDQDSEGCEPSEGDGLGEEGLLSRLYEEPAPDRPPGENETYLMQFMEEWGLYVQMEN
T1 sequence 2: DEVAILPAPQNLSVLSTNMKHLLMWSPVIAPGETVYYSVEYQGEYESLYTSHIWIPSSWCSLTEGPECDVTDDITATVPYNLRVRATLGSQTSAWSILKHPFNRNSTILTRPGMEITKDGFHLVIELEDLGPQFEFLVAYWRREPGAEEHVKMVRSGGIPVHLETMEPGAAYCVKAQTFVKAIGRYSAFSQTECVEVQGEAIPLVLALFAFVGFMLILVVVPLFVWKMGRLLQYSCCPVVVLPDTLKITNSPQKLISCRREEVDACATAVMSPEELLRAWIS
The experiment in a line: 125I-labeled IL-20 binding to BHK cells stably transfected with IL-20RA and IL-20RB.

Results on 1 molecule are retold here after EP1246846B1 (ZymoGenetics, Inc., dated 2008).

B1: IL-20 (Interleukin-20) (ligand, UniProt Q9NYY1 25-176, looked up)
chain: LKTLNLGSCVIATNLQEIRNGFSEIRGSVQAKDGNIDIRILRRTESLQDTKPANRCCLLRHLLRLYLDRVFKNYQTPDHYTLRKISSLANSFLTIKKDLRLCHAHMTCHCGEEAMKKYSQILSHFEKLEPQAAVVKALGELDILLQWMEETE
modifications: biotin-labeled in Example 3; 125I-labeled in Example 7; unlabeled in the functional assays
notes: also called Zcyto10; biotin-labeled IL-20 protein
The Kd is a measure of binding affinity in units of concentration. A higher Kd goes with a looser complex. Molecule B1 showed a dissociation constant Kd of roughly 1.5 nM.
